*: point of attachment. Biotin = O=C1N[C@H]2[C@H](CS[C@H]2CCCCC(=O)*)N1
T1: GBB5 peptide (Guanine Nucleotide-Binding Protein Beta 5) (Oryctolagus cuniculus peptide, synthetic, SMILES …)
T1 construct: four amino acid linker, printed in words: Glycine-Serine-Glycine-Serine; also called wild-type peptide; Ctrl; source: synthetic peptide
T1 chain: Biotin-GSGSKLHDVELHQVAERV-NH2

B1: anti-GBB5-H9 scFv (scFv, V domains shown)
VH: EVQLVQSGGGLVQPGGSLRLSCAASGFTVSSNYMSWVRQAPGKGLEWVSSISSSSSYIYYADSVKGRFTISRDNAKNSLYLQMNSLRAEDTAVYYCARSYPFDYWGQGTLVTVSS
VL: NFMLTQPHSVSESPGKAVTISCTGSSGDVARNYVQWYQQRPGSAPIIVIYEDTQRPSGVPDRFSGSIDSSSNSASLTISGLTTEDEADYYCQSYDGHNVIFGGGTKLTVL
notes: VL of clone H9, from a phage library of human B-cell cDNA; 14 amino acid linker of the library vector between VL and VH; VH of clone H9, from a phage library of human B-cell cDNA; Order VL-linker-VH; also called anti-GBB5-scFv H9; source: E. coli TG-1 (pKP300ΔIIIΔAP, OmpA signal to the periplasm, low phosphate media), purified (IMAC); not shown: FLAG, N-terminal, kept
B2: anti-GBB5-H9 scFv-Fc (Fc fusion, human)
VH: EVQLVQSGGGLVQPGGSLRLSCAASGFTVSSNYMSWVRQAPGKGLEWVSSISSSSSYIYYADSVKGRFTISRDNAKNSLYLQMNSLRAEDTAVYYCARSYPFDYWGQGTLVTVSS
VL: NFMLTQPHSVSESPGKAVTISCTGSSGDVARNYVQWYQQRPGSAPIIVIYEDTQRPSGVPDRFSGSIDSSSNSASLTISGLTTEDEADYYCQSYDGHNVIFGGGTKLTVL
notes: VL as in m1 (clone H9); 14 amino acid linker of the library vector between VL and VH; VH as in m1 (clone H9); H9 scFv coding region subcloned upstream of the Fc through NcoI and NotI; order after the scFv: Fc, (His)6, tri-FLAG; Homodimer through disulfide bonds of the Fc; also called Fc format of the H9 clone; bivalent Fc format; source: HEK-293 Freestyle cells, transiently transfected …

What was measured:
[1] = biological target: T2, Guanine Nucleotide-Binding Protein Beta 5 (GBB5), chicken, endogenous (Gallus gallus, UniProt A0A8V0ZF95); experiment: far-Western, overlay or dot blot; western blot: retinal lysates resolved by SDS-PAGE, on PVDF; probed with 1 μg/mL scFv in PBS for 2 h; anti-Flag-HRP M2, ECL; settings: one partner purified
T2 construct: expected size 38.8 kDa printed; also called chicken homolog; source: endogenous, chicken retina or whole eye homogenate

[2] = biological target: T3, Guanine Nucleotide-Binding Protein Beta 5 (GBB5), mouse, endogenous (Mus musculus, UniProt P62881, strain); experiment: as above; settings: one partner purified
T3 construct: also called mouse GBB5; source: endogenous, mouse retinal homogenate

[3] = biological target: T4, Guanine Nucleotide-Binding Protein Beta 5 (GBB5), rabbit, endogenous (Oryctolagus cuniculus, UniProt Q6PNB6); experiment: as above; settings: one partner purified
T4 construct: expected size 38.7 kDa printed; also called rabbit GBB5; source: endogenous, rabbit retinal homogenate

[4] = biological target: T1, GBB5 peptide (Guanine …); experiment: photonic crystal biosensor (SRU Biosystems BIND); biotinylated peptide, 50 ng/well, on streptavidin-coated 96-well biosensor plate, blocked with 5% BSA; scFv in decreasing concentration in 7 wells in elution buffer; overnight end-point change in peak wavelength; dose response curve, EC50 used to estimate Kd; settings: both partners purified
[5] = biological target: T1, GBB5 peptide (Guanine …); experiment: ELISA; peptides at 25 nM on NeutrAvidin-coated plate; scFv at 30 nM, scFv-Fc at 10 nM in PBST; anti-FLAG-HRP, ABTS, 405 nm; settings: both partners purified

T4 sequence (Q6PNB6 whole entry): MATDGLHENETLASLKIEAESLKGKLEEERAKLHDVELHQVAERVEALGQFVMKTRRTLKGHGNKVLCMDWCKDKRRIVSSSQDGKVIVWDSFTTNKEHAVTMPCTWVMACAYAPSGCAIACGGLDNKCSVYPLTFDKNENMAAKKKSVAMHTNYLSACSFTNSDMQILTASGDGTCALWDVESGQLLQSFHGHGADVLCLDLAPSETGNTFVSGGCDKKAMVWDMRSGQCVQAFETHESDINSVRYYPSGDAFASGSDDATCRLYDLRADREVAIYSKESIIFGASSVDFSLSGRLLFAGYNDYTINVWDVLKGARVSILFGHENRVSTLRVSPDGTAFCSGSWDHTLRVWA
T3 sequence (P62881 whole entry, looked up, change not shown): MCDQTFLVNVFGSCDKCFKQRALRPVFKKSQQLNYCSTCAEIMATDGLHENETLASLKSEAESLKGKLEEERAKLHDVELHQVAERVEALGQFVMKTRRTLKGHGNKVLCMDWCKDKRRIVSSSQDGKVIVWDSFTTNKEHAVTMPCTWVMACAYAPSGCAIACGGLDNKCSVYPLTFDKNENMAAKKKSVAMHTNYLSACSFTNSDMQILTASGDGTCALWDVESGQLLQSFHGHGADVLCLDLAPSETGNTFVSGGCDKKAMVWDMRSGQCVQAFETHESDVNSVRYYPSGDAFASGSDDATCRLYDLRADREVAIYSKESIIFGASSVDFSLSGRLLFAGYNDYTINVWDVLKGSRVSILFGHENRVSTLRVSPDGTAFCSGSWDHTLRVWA

| Binder | binding result [1] | binding result [2] | binding result [3] | EC50 [4] | fold ELISA signal against the soluble scFv [5] |
| --- | --- | --- | --- | --- | --- |
| B1 | binds | binds | binds | ~300 nM |  |
| B2 |  |  |  |  | ~4.5 fold |

— article PMC4406585, “Generating Recombinant Antibodies against Putative Biomarkers of Retinal Injury” (PLoS ONE, 2015)
